{"source": "paper PMC11006913", "experiment_in_all_cases": "PBM", "key": {"SHOX R173C (human)": {"test_system": "SHOX R173C (human)", "settings": "contrastQ 1.38E-15; Universal PBM, 200 nM protein in PBS; temperature and pH not stated in the material"}, "HOXD13 T313R (human)": {"test_system": "HOXD13 T313R (human)", "settings": "contrastQ 1.85E-52; Universal PBM, 200 nM protein in PBS; temperature and pH not stated in the material"}, "HESX1 N125S (human)": {"test_system": "HESX1 N125S (human)", "settings": "Universal PBM, 200 nM protein in PBS, temperature and pH not stated in the material"}, "HESX1 R160C (human)": {"test_system": "HESX1 R160C (human)", "settings": "contrastQ 1.53E-116; Universal PBM, 200 nM protein in PBS; temperature and pH not stated in the material"}, "PROP1 R99Q (human)": {"test_system": "PROP1 R99Q (human)", "settings": "contrastQ 2.52E-38; Universal PBM, 200 nM protein in PBS; temperature and pH not stated in the material"}, "HESX1 E149K (human)": {"test_system": "HESX1 E149K (human)", "settings": "contrastQ 9.83E-08; Universal PBM, 200 nM protein in PBS; temperature and pH not stated in the material"}, "HESX1 R109Q (human)": {"test_system": "HESX1 R109Q (human)", "settings": "contrastQ 1.24E-92; Universal PBM, 200 nM protein in PBS; temperature and pH not stated in the material"}, "PROP1 F88S (human)": {"test_system": "PROP1 F88S (human)", "settings": "contrastQ 3.19E-277; Universal PBM, 200 nM protein in PBS; temperature and pH not stated in the material"}, "NKX2-5 K183E (human)": {"test_system": "NKX2-5 K183E (human)", "settings": "Universal PBM, 200 nM protein in PBS, temperature and pH not stated in the material"}, "ARX T333N (human)": {"test_system": "ARX T333N (human)", "settings": "contrastQ 5.30E-28; Universal PBM, 200 nM protein in PBS; temperature and pH not stated in the material"}, "ARX L343Q (human)": {"test_system": "ARX L343Q (human)", "settings": "contrastQ 3.05E-194; Universal PBM, 200 nM protein in PBS; temperature and pH not stated in the material"}, "ARX P353R (human)": {"test_system": "ARX P353R (human)", "settings": "Universal PBM, 200 nM protein in PBS; temperature and pH not stated in the material"}, "HOXD13 I322L (human)": {"test_system": "HOXD13 I322L (human)", "settings": "Universal PBM, 200 nM protein in PBS, temperature and pH not stated in the material"}, "HOXD13 S316C (human)": {"test_system": "HOXD13 S316C (human)", "settings": "contrastQ 0.9698003 (no significant change); Universal PBM, 200 nM protein in PBS; temperature and pH not stated in the material"}}}
{"substance": "PBM 8-mer ATTATAAT", "values": [{"measurement": "binding signal (contrast difference vs reference)", "setting": "SHOX R173C (human)", "result": -1.91}]}
{"substance": "PBM 8-mer CAATAAAA", "values": [{"measurement": "binding signal (contrast difference vs reference)", "setting": "HOXD13 T313R (human)", "result": -1.23}]}
{"substance": "PBM 8-mer CAATTAAA", "values": [{"measurement": "binding signal (contrast difference vs reference)", "setting": "HESX1 N125S (human); contrastQ 0.7783541 (no significant change)", "result": -0.277}]}
{"substance": "PBM 8-mer CTAATTGA", "values": [{"measurement": "binding signal (contrast difference vs reference)", "setting": "HESX1 R160C (human)", "result": -2.1}, {"measurement": "binding signal (contrast difference vs reference)", "setting": "PROP1 R99Q (human)", "result": -0.687}, {"measurement": "binding signal (contrast difference vs reference)", "setting": "HESX1 E149K (human)", "result": -0.502}, {"measurement": "binding signal (contrast difference vs reference)", "setting": "HESX1 R109Q (human)", "result": -3.4}, {"measurement": "binding signal (contrast difference vs reference)", "setting": "PROP1 F88S (human)", "result": -4.12}, {"measurement": "binding signal (contrast difference vs reference)", "setting": "HESX1 N125S (human); contrastQ 0.9069244 (no significant change)", "result": -0.172}]}
{"substance": "PBM 8-mer GCACTTCA", "values": [{"measurement": "binding signal (contrast difference vs reference)", "setting": "NKX2-5 K183E (human); contrastQ 5.13E-38", "result": -1.27}]}
{"substance": "PBM 8-mer GCACTTGA", "values": [{"measurement": "binding signal (contrast difference vs reference)", "setting": "NKX2-5 K183E (human); contrastQ 1.87E-56", "result": -1.44}]}
{"substance": "PBM 8-mer GTTAATTA", "values": [{"measurement": "binding signal (contrast difference vs reference)", "setting": "ARX T333N (human)", "result": -0.803}, {"measurement": "binding signal (contrast difference vs reference)", "setting": "ARX L343Q (human)", "result": -2.29}, {"measurement": "binding signal (contrast difference vs reference)", "setting": "ARX P353R (human)", "result": -2.42}]}
{"substance": "PBM 8-mer TCATAAAA", "values": [{"measurement": "binding signal (contrast difference vs reference)", "setting": "HOXD13 I322L (human); contrastQ 8.96E-16", "result": -1.15}, {"measurement": "binding signal (contrast difference vs reference)", "setting": "HOXD13 S316C (human)", "result": 0.133}]}
{"substance": "PBM 8-mer TCGTAAAA", "values": [{"measurement": "binding signal (contrast difference vs reference)", "setting": "HOXD13 I322L (human); contrastQ 3.41E-01 (no significant change)", "result": 0.259}, {"measurement": "binding signal (contrast difference vs reference)", "setting": "HOXD13 S316C (human)", "result": 0.128}]}
